From patent publication US4732973A, “Active site modified protease α-1-antitrypsin inhibitors” (Chiron Corporation, priority 1984, dated 1988) come the findings set out here.

Data set [1] deals with human leukocyte elastase (HLE). Briefly: Anti-elastase activity: inhibition of human leukocyte elastase cleavage of MeO-Suc-Ala-Ala-Pro-Val-p-nitroanilide (A410). The data set is classed as biochemical. The protocol:
For the assay, extracts were diluted in 50 mM Tris pH8, 50 mM NaCl. […] Assays were initiated by the addition of 0.1 5 μg HLE and were incubated for 15 min at 28° C., terminated by the addition of 100 μl of 8N acetic acid and the absorbance at 410 nm determined (Beatty et al., supra). Protein concentrations were determined as described in Bradford, Anal. Biochem. (1976) 72:248-253. From the amount of human leukocyte elastase activity observed, given the protein concentration of the yeast extracts and the amount of the enzyme added, the percentage of the yeast soluble protein which is α1 -antitrypsin can be calculated. It is assumed that there is 100 percent human leukocyte elastase activity, a 1:1 complex between human leukocyte elastase and α1 -antitrypsin whose molecular weights are 29 kD and 42 kD, respectively.

The subject of data set [2] is human leukocyte elastase (HLE). Briefly: Oxidation resistance: N-chlorosuccinimide (NCS) treatment, then anti-HLE activity assay. Type of data set: biochemical.
Description: To determine the anti-elastase activities of the mutant (Val) or wild-type (Met) α1 -antitrypsin, appropriate yeast extracts were incubated with human leukocyte elastase (HLE) and a synthetic peptide substrate the cleavage of which can be assayed at 410 nm (Beatty et al., supra). For the assay, extracts were diluted in 50 mM Tris pH8, 50 mM NaCl. […] Assays were initiated by the addition of 0.1 5 μg HLE and were incubated for 15 min at 28° C., terminated by the addition of 100 μl of 8N acetic acid and the absorbance at 410 nm determined (Beatty et al., supra).
For this purpose, aliquots of the extracts were diluted in 50 mM Tris pH8, 50 mM NaCl, incubated at room temperature for 5 min in 100 μl of 50 mM Tris pH8, with the indicated amount of NCS, and assayed for anti-HLE activity.

Several values for one entry are separate records, joined by “and”; a condition that tells them apart may be missing. Equal entries are not always repeated.

For “α1 AT: Control human α1-antitrypsin added in μg amounts to the elastase assay”, the “Elastase Activity (%)” value in data set [1] (Table 1, 0.2 μg control human α1 AT, no NCS) is 67%; in data set [1] (Table 1, 1.0 μg control human α1 AT plus 3.8 μl Cl/l yeast extract, no NCS), 12%; in data set [1] (Table 1, 1.0 μg control human α1 AT, no NCS), 5% and 0%; in data set [1] (Table 2, 0.5 μg control human α1 AT, NCS -) it was 44%; in data set [1] (Table 2, 1.0 μg control human α1 AT, NCS -), 10%; in data set [2] (Table 1, 1.0 μg control human α1 AT plus 3.8 μl Cl/l yeast extract, NCS (10 mM) 10 μl) it was 84%. Also, the “Elastase Activity (%)” value in data set [2] (Table 1, 1.0 μg control human α1 AT, NCS (10 mM) 10 μl) is recorded as 91%; in data set [2] (Table 2, 0.5 μg control human α1 AT, NCS (10 mM) +), 96%.
